According to patent publication KR20220012792A (dated 2022):
Read-outs that look alike come from different tables or passages of the source.

Legend:
Assay in all cases: cell-based or functional assay
[1] = target: T1, S 단백질 of SARS-CoV-2 BetaCoV/Korea/KCDC03/2020 (614D, S형) (SARS-CoV-2)
[2] = target: T1, S 단백질 of SARS-CoV-2 …; remark: listed apart in the source
[3] = target: T1, S 단백질 of SARS-CoV-2 …; remark: listed apart in the source
[4] = target: S 단백질 of SARS-CoV-2 hCoV-19/Korea/KCDC31/2020 (V형) (SARS-CoV-2)
[5] = target: S 단백질 of SARS-CoV-2 hCoV-19/South Korea/KNIH04/2020 (L형) (SARS-CoV-2)

B1: No. 139 항체 (Full IgG) (antibody, V domains shown)
VH: QITLKESGPTLVKPTQTLTLTCSFSGFSLSTSGVGVGWIRQPPGKALEWLALIDWDDNKYHTTSLKTRLTISKDTSKNQVVLTMTNMDPVDTATYYCARIPGFLRYRNRYYYYGMDVWGQGTTVTVSS
VL: ELVLTQPPSVSAAPGQKVTISCSGSSSNIGNNYVSWYQQLPGTAPKLLIYDNNKRPSGIPDRFSGSKSGTSATLGITGLQTGDEADYYCGTWDSSLSAGVFGGGTELTVL
- IC50 (ng/ml), PRNT [1]: 4.1 ng/mL
- IC50, PRNT [1]: 8.37 ng/mL
- IC50 (ng/ml), PRNT [2]: 29.8 ng/mL
- IC50 (ng/ml), PRNT [3]: 6.76 ng/mL
- IC50 (ng/ml), PRNT [4]: 8 ng/mL
- IC50 (ng/ml), PRNT [5]: 4.79 ng/mL
